Source: paper PMC11261779, “Structural studies of WDR5 in complex with MBD3C WIN motif reveal a unique binding mode” (The Journal of Biological Chemistry, 2024)

How the values were obtained:
[1] = biological target: WD repeat-containing protein 5 (WDR5), truncated construct, residues 24-334 (mouse, UniProt P61965 24-334); assay: ITC; peptide (0.5 to 1.0 mM) titrated into WDR5 protein (44.5 μM) in the cell; 20 °C; Buffer D (20 mM Tris-HCl, 200 mM NaCl, pH 7.5); single binding site model; details: both partners purified
[2] = biological target: WDR5 (residues 24-334) D107S (mouse, UniProt P61965 24-334, D107S); assay: as above; details: both partners purified

Row | Kd [1] [nM] | dH [1] [kcal/mol] | stoichiometry N [1] | Kd [2] [nM] | dH [2] [kcal/mol] | stoichiometry N [2] | Binder
1 | 130 ± 20 | -11.4 ± 0.13 | 1.06 | 10800 ± 1030 | -5.4 ± 0.17 | 1.34 | GAARCRVFSPQG (numbers count on: isoform MBD3C; also called MBD3C peptide; MBD3C WIN motif; source: synthetic peptide (GenScript)) [MBD3C_(40-51) peptide (methyl-CpG binding domain 3 isoform C, WIN motif)]
2 | 1010 ± 40 | -7.8 ± 0.04 | 0.99 | – | – | – | GAARCRVHSPQG (numbers count on: isoform MBD3C; also called MBD3C^F47H; source: synthetic peptide (GenScript)) [MBD3C_(40-51) (F47H) peptide]
3 | 670 ± 60 | -7.49 ± 0.08 | 1.25 | – | – | – | GAARCEVFSPQG (numbers count on: isoform MBD3C; also called MBD3C^R45E; source: synthetic peptide (GenScript)) [MBD3C_(40-51) (R45E) peptide]
4 | 1310 ± 210 | -15 ± 0.52 | 1.17 | – | – | – | GAAKCRVFSPQG (numbers count on: isoform MBD3C; also called MBD3C^R43K; source: synthetic peptide (GenScript)) [MBD3C_(40-51) (R43K) peptide]
5 | 650 ± 30 | -7.32 ± 0.05 | 1.34 | – | – | – | GAARCRVASPQG (numbers count on: isoform MBD3C; also called MBD3C^F47A; source: synthetic peptide (GenScript)) [MBD3C_(40-51) (F47A) peptide]
